These results are taken from the supplement of paper PMC5998384.

Data set [1] concerns HeLa Kyoto. The data set can be described thus: solubility in G1/S (NP-40 vs SDS abundance) (log2 ratio); higher = more soluble. Conditions: cell cycle stage: G1/S.
For data set [2], the system named is HeLa Kyoto. Description: melting temperature (median over replicates), in situ; higher = more thermally stable.
The subject of data set [3] is HeLa Kyoto. Description: solubility change mitosis vs G1/S (difference of NP-40 vs SDS log2 ratios) (log2 ratio difference); higher = more soluble in mitosis.
In data set [4] the test system is HeLa Kyoto. Description: thermal stability score vs G1/S (z-score of summed log2 fold changes over temperatures); higher = more thermally stable than in G1/S.
Where [5] appears, read: cell cycle stage: early G1 (4.5 h after nocodazole release).
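For melting temperature (median over replicates), in situ in this document: HeLa Kyoto cells synchronized by double thymidine or nocodazole block, proteins quantified by TMT10plex mass spectrometry, three independent biological replicates.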
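For solubility change mitosis vs G1/S (difference of NP-40 vs SDS log2 ratios) in this document: synchronized HeLa Kyoto cells (double thymidine block for G1/S, nocodazole release for mitosis), protein amounts in NP-40 versus SDS lysates quantified by mass spectrometry, three biological replicates.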
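For solubility in G1/S (NP-40 vs SDS abundance) in this document: HeLa Kyoto cells arrested at G1/S by double thymidine block, proteins quantified by TMT10plex mass spectrometry in mild NP-40 versus SDS extracts, three biological replicates.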
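For thermal stability score vs G1/S (z-score of summed log2 fold changes over temperatures) in this document: synchronized HeLa Kyoto cells, proteins quantified by TMT10plex mass spectrometry, three biological replicates, mitosis taken 0.5 h after nocodazole release, G1/S directly after double thymidine block.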

Turning to “MRNLKLFRTLEFRDIQGPGNPQCFSLRTEQGTVLIGSEHGLIEVDPVSREVKNEVSLVAEGFLPEDGSGRIVGVQDLLDQESVCVATASGDVILCSLSTQQLECVGSVASGISVMSWSPDQELVLLATGQQTLIMMTKDFEPILEQQIHQDDFGESKFITVGWGRKETQFHGSEGRQAAFQMQMHESALPWDDHRPQVTWRGDGQFFAVSVVCPETGARKVRVWNREFALQSTSEPVAGLGPALAWKPSGSLIASTQDKPNQQDIVFFEKNGLLHGHFTLPFLKDEVKVNDLLWNADSSVLAVWLEDLQREESSIPKTCVQLWTVGNYHWYLKQSLSFSTCGKSKIVSLMWDPVTPYRLHVLCQGWHYLAYDWHWTTDRSVGDNSSDLSNVAVIDGNRVLVTVFRQTVVPPPMCTYQLLFPHPVNQVTFLAHPQKSNDLAVLDASNQISVYKCGDCPSADPTVKLGAVGGSGFKVCLRTPHLEKRYKIQFENNEDQDVNPLKLGLLTWIEEDVFLAVSHSEFSPRSVIHHLTAASSEMDEEHGQLNVSSSAAVDGVIISLCCNSKTKSVVLQLADGQIFKYLWESPSLAIKPWKNSGGFPVRFPYPCTQTELAMIGEEECVLGLTDRCRFFINDIEVASNITSFAVYDEFLLLTTHSHTCQCFCLRDASFKTLQAGLSSNHVSHGEVLRKVERGSRIVTVVPQDTKLVLQMPRGNLEVVHHRALVLAQIRKWLDKLMFKEAFECMRKLRINLNLIYDHNPKVFLGNVETFIKQIDSVNHINLFFTELKEEDVTKTMYPAPVTSSVYLSRDPDGNKIDLVCDAMRAVMESINPHKYCLSILTSHVKKTTPELEIVLQKVHELQGNAPSDPDAVSAEEALKYLLHLVDVNELYDHSLGTYDFDLVLMVAEKSQKDPKEYLPFLNTLKKMETNYQRFTIDKYLKRYEKAIGHLSKCGPEYFPECLNLIKDKNLYNEALKLYSPSSQQYQDISIAYGEHLMQEHMYEPAGLMFARCGAHEKALSAFLTCGNWKQALCVAAQLNFTKDQLVGLGRTLAGKLVEQRKHIDAAMVLEECAQDYEEAVLLLLEGAAWEEALRLVYKYNRLDIIETNVKPSILEAQKNYMAFLDSQTATFSRHKKRLLVVRELKEQAQQAGLDDEVPHGQESDLFSETSSVVSGSEMSGKYSHSNSRISARSSKNRRKAERKKHSLKEGSPLEDLALLEALSEVVQNTENLKDEVYHILKVLFLFEFDEQGRELQKAFEDTLQLMERSLPEIWTLTYQQNSATPVLGPNSTANSIMASYQQQKTSVPVLDAELFIPPKINRRTQWKLSLLD [IKBKAP]”, in data set [1], the “solubility in G1/S (log2)” value is -0.206. Moreover, the melting temperature in data set [2] (cell cycle stage: G1/S) worked out at 50.2 °C; in data set [2] (cell cycle stage: mitosis), 50 °C. The “solubility change mitosis (log2)” value in data set [3] is -0.15. Moreover, the thermal stability score was 0.962 in data set [4] (setting [5]) and -0.0976 in data set [4] (cell cycle stage: mitosis).
Take “MSAEVKVTGQNQEQFLLLAKSAKGAALATLIHQVLEAPGVYVFGELLDMPNVRELAESDFASTFRLLTVFAYGTYADYLAEARNLPPLTEAQKNKLRHLSVVTLAAKVKCIPYAVLLEALALRNVRQLEDLVIEAVYADVLRGSLDQRNQRLEVDYSIGRDIQRQDLSAIARTLQEWCVGCEVVLSGIEEQVSRANQHKEQQLGLKQQIESEVANLKKTIKVTTAAAAAATSQDPEQHLTELREPAPGTNQRQPSKKASKGKGLRGSAKIWSKSN [COPS7A]”: in data set [1], the “solubility in G1/S (log2)” value stood at 0.458. In addition, the melting temperature is 53.9 °C in data set [2] (cell cycle stage: G1/S) and 54 °C in data set [2] (cell cycle stage: mitosis). For the same substance, the “solubility change mitosis (log2)” value in data set [3] was 0.216. Moreover, the figures for the thermal stability score in data set [4] (setting [5]) and in data set [4] (cell cycle stage: mitosis) were -1.47 and -1.53, respectively.
Regarding “MAGSEQQRPRRRDDGDSDAAAAAAAPLQDAELALAGINMLLNNGFRESDQLFKQYRNHSPLMSFGASFVSFLNAMMTFEEEKMQLACDDLKTTEKLCESEEAGVIETIKNKIKKNVDVRKSAPSMVDRLQRQIIIADCQVYLAVLSFVKQELSAYIKGGWILRKAWKIYNKCYLDINALQELYQKKLTEESLTSDAANDNHIVAEGVSEESLNRLKGAVSFGYGLFHLCISMVPPNLLKIINLLGFPGDRLQGLSSLMYASESKDMKAPLATLALLWYHTVVRPFFALDGSDNKAGLDEAKEILLKKEAAYPNSSLFMFFKGRIQRLECQINSALTSFHTALELAVDQREIQHVCLYEIGWCSMIELNFKDAFDSFERLKNESRWSQCYYAYLTAVCQGATGDVDGAQIVFKEVQKLFKRKNNQIEQFSVKKAERFRKQTPTKALCVLASIEVLYLWKALPNCSFPNLQRMSQACHEVDDSSVVGLKYLLLGAIHKCLGNSEDAVQYFQRAVKDELCRQNNLYVQPYACYELGCLLLDKPETVGRGRALLLQAKEDFSGYDFENRLHVRIHAALASLRELVPQ [TTC39C]”, the “solubility in G1/S (log2)” value in data set [1] was -0.0737. Also, the melting temperature in data set [2] (cell cycle stage: G1/S) amounted to 53.6 °C; in data set [2] (cell cycle stage: mitosis), 52.6 °C. In data set [3], the “solubility change mitosis (log2)” value is -0.00412. For the same substance, the thermal stability score in data set [4] (setting [5]) is -1.01; in data set [4] (cell cycle stage: mitosis) it was -2.55.
For the substance INADL, the “solubility in G1/S (log2)” value in data set [1] is -0.0157. The values for the melting temperature in data set [2] (cell cycle stage: G1/S) and in data set [2] (cell cycle stage: mitosis) were 47.4 °C and 49.2 °C, respectively. The “solubility change mitosis (log2)” value in data set [3] is -0.068. The thermal stability score amounted to 0.59 in data set [4] (setting [5]) and 1.68 in data set [4] (cell cycle stage: mitosis).
